Target: IL-12 (mouse; target of the rat anti-mouse antibodies in the in vitro neutralization studies) (mouse) (UniProt P43432)
Test: cell-based or functional assay

Chain of IL-12 (mouse; target of the rat anti-mouse antibodies in the in vitro neutralization studies) (mouse) (P43432 23-335, chain 1 of 2): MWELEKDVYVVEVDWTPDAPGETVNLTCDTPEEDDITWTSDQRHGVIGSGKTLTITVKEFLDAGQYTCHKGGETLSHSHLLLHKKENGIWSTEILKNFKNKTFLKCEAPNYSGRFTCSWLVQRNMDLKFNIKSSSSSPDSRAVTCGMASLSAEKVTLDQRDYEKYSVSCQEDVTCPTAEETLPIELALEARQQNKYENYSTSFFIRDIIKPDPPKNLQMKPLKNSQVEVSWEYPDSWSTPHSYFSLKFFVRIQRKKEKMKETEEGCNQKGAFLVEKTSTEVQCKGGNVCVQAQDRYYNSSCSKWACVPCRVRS
Chain of IL-12 (mouse; target of the rat anti-mouse antibodies in the in vitro neutralization studies) (mouse) (P43431 23-215, chain 2 of 2, further chain): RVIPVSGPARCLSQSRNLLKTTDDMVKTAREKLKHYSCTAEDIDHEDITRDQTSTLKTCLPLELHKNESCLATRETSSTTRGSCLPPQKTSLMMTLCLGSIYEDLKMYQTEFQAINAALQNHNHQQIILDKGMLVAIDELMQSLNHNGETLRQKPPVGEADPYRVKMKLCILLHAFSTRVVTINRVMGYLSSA

in vitro neutralization of IL-12 (fold (against anti-p35 mAb C18.2)): 5
Substance: C17.8 (rat anti-mouse IL-12/IL-23p40, IgG2a) (antibody)
